Data on ten substances can be found in patent US9975933B2, “Tumor tissue-penetrating peptide specific to neuropilin and fusion protein having same peptide fused therein” (AJOU UNIVERSITY INDUSTRY-ACADEMIC COOPERATION FOUNDATION, priority 2013, dated 2018).

Data set [1] concerns HUVEC. Description: Transwell assay of vascular endothelial cell permeability. The data set is classed as cell-based, human. The conditions noted are these: single peptides and Fc-TPP 1 μM, 30 minutes. The procedure: Based on the above experimental results, as experiments for confirming the improvement of vascular endothelial cell permeability, single peptides and Fc-TPP were treated to conduct Transwell assay.
Specifically, HUVECs were seeded into Transwell plate (Corning) at a density of 5×10^4 per well in a upper chamber using Endothelial Growth Medium, PromoCell (EGM) medium, followed by incubation at 37° C. for 3 days under 5% CO2 condition. […] Thereafter, Dextran-FITC (Sigma) 50 μg was put into the upper chamber and the medium of the lower chamber was sampled to measure its fluorescence after 30 minutes, using the principle that a fluorescent substance is observed in the lower chamber when the permeability in HUVECs was improved.

Data set [2] deals with A431 tumor. Description: IHC of Fc-TPP infiltration in A431 tumor tissue. It counts as in vivo, Balb/c nude mice. The conditions noted are these: A431 xenograft, 5 mg/kg intravenously, 3 hours. How it is done:
3 hours after injection, tumors were extracted from mice to conduct immunohistochemistry experiment. The extracted tumors were cut into 20 μm thick using a frozen section method, and stained with a primary antibody, CD31 antibody (BD Pharmingen), and a TRITC (red fluorescence)-conjugated secondary antibody. Further, in order to observe Fc-TPP distributed in the tissues, FITC (green fluorescence)-conjugated antibodies recognizing Fc were used.

Data set [3] concerns VE-cadherin in HUVEC. Description: Western blot of VE-cadherin in HUVEC. The data set is classed as cell-based, human. To be noted: single peptides and Fc-TPP 1 μM, 10 minutes. From the text:
During this process, a decrease in vascular endothelial (VE)-cadherin, phosphorylation, etc. of endothelial cells occur. That is, VE-cadherin or epithelial (E)-cadherin involves in adhesion between endothelial cells, while forming the base of adherent junction between endothelial cells and epithelial cells. The change in molecules relieve the density of adherent junction, which results in increasing permeability of blood vessels and improving intracellular permeability.
As an experimental method for indirectly confirming improvement of vascular permeability based thereon, a change in VE-cadherin was confirmed through a Western blot. Specifically, HUVECs were seeded into 6-well plates at a density of 3×10^5 per well, followed by incubation for 24 hours. Thereafter, single peptides and Fc-TPP were treated with 1 μM for 10 minutes to perform a Western blot. Gel subjected to SDS-PAGE was transported into PVDF membrane, a primary antibody (SantaCruz) and an HRP-conjugated secondary antibody (SantaCruz) which recognize VE-cadherin and (3-actin, respectively were used for detection. ImageQuant LAS4000 mini (GE Healthcare) was used for analysis.
For orientation: Immunoblotting shows a protein as a band on a membrane.

Data set [4] has as its target T1, NRP1-b1b2 (b1b2 domain of neuropilin-1) (Homo sapiens, UniProt O14786).
T1 construct: b1b2 domains (273-586) of neuropilin-1
Kind of data set: SPR (Biacore2000) binding to b1b2 domain of neuropilin-1. The conditions noted are these: NRP1-b1b2, SPR; for Kd: read-out: Binding affinity KD. How it is done: (§1) Specifically, each b1b2 domain of neuropilin-1 and -2 was diluted with 10 mM Na-acetate buffer (pH 4.0), and fixed onto CMS sensor chips (GE healthcare, USA) in about 1000 response units (RU). […] After bond and dissociation analysis, the regeneration of CMS chip was performed by streaming a buffer (20 Mm NaOH, 1 M NaCl, pH 10.0) at a stream velocity 30 μl/min for 1 minute.
(In general: In SPR one partner is held on a chip, and binding of the other changes the refractive index at the surface.)

For data set [5], the target named is T2, NRP2-b1b2 (b1b2 domain of neuropilin-2) (Homo sapiens, UniProt O60462).
T2 construct: b1b2 domains (275-595) of neuropilin-2
T2 sequence (O60462 275-595): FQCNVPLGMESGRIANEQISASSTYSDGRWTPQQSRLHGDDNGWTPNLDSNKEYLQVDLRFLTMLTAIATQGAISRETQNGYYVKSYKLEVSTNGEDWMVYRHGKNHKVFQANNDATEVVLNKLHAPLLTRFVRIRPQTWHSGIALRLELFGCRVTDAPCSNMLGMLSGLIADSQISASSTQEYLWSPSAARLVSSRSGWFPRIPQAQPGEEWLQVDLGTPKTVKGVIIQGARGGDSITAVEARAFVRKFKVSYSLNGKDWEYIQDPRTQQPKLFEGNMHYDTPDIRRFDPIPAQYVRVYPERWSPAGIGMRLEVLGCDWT
Kind of data set: SPR (Biacore2000) binding to b1b2 domain of neuropilin-2. To be noted: for Kd: read-out: Binding affinity KD. The procedure:
as §1

The test system of data set [6] is b1b2 domains of neuropilin-1 and -2. Description: ELISA binding to b1b2 domains of neuropilin-1 and -2. To be noted: 100 nM (peptides 100 nM, 1 μM). The procedure:
The binding capacity of purified Fc-TPP to b1b2 domains of neuropilin-1 and -2 (neuropilin (NRP)1/2-b1b1 domain) was confirmed in Enzyme Linked Immunosorbent Assay (ELISA).
The target molecules, b1b2 domains (273-586) of neuropilin-1 and b1b2 domains (275-595) of neuropilin-2, and the control group VEGFR2 (46-753) were bound in an amount of 1 μg each in 96-well EIA/RIA plates (COSTAR Corning In., USA) at room temperature for 1 hour, and then washed three times for 10 minutes with 0.1% PBST (0.1% Tween20, pH 7.4, 137 mM NaCl, 10 mM Phosphate, 2.7 mM KCl, SIGMA-ALDRICH co., USA). After binding for 1 hour with 5% skim milk (pH 7.4, 137 mM NaCl, 10 mM Phosphate, 2.7 mM KCl, SIGMA-ALDRICH co., USA), it was washed three times for 10 minutes with 0.1% PBST (0.1% Tween20, pH 7.4, 137 mM NaCl, 10 mM Phosphate, 2.7 mM KCl, SIGMA-ALDRICH co., USA). […] After binding to alkaline phosphatase (AP)-conjugated anti-biotin mAb (Sigma, USA) and reacting with pnitrophenyl […] (pNPP, SIGMA-ALDRICH co., USA), absorbance at 405 nm was quantified. From the ELISA result obtained from 30 minute-reaction of AP-pNPP, the binding capacity of expressed and purified Fc-TPP to b1b2 domains of neuropilin-1 and -2 was confirmed.

Data set [7] has as its target b1b2 domains (275-595) of neuropilin-2 (Homo sapiens (Human)) (UniProt O60462). Description: SPR, b1b2 domain on chip.
In data set [8] the target is b1b2 domains (273-586) of neuropilin-1 (Homo sapiens (Human)) (UniProt O14786). Kind of data set: SPR, b1b2 domain on chip.

T1 sequence (O14786 273-586): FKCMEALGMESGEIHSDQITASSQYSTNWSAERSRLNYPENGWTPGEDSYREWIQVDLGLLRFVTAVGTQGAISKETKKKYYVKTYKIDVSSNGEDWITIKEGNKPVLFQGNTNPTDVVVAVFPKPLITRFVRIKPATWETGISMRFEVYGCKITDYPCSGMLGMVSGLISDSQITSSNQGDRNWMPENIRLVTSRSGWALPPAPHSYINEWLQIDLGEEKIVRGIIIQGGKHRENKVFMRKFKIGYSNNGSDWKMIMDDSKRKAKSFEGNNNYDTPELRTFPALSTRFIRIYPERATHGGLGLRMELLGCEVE

Take “F22: Sema3F-derived 22 amino acid TPP, residues 758-779, SEQ ID NO: 3, REAPGAPRSPEPQDQKKPRNRR (F22) [Clone F22]”: the “permeability of HUVEC (Transwell, Dextran-FITC)” value (“permeability of HUVEC” for short) in data set [1] is reported as “permeability of HUVEC was not improved”.
In the case of “A22: Sema3A-derived 22 amino acid TPP, residues 739-760, SEQ ID NO: 1, HTPGNSNKWKHLQENKKGRNRR (A22) [Clone A22]”, the “infiltration into tumor tissue (IHC)” value in data set [2] is “did not infiltrate into the tissues”. The “change in VE-cadherin (Western blot)” value in data set [3] was “no change in VE-cadherin”. Moreover, the “permeability of HUVEC” value in data set [1] was “improvement of vascular permeability was not induced”.
As usually defined, the Kd is the equilibrium constant for the complex coming apart. For the substance “Fc-4A22: Human IgG1 Fc with TPP 4A22 (SEQ ID NO: 5) fused to its C-terminus (GAGAHTPGNSNKWKHLQENKKGRNRR)”, in data set [4], the Association rate ka is given as 1.02 ± 0.14 × 10^3 M^−1s^−1, the Dissociation rate kd was 1.93 ± 0.05 × 10^−2 s^−1 and the Kd is 18 µM. In addition, in data set [5], the Association rate ka is reported as 6.09 ± 0.63 × 10^3 M^−1s^−1, the Dissociation rate kd is recorded as 1.23 ± 0.16 × 10^−1 s^−1 and the equilibrium dissociation constant (Kd) is 20.2 µM. For the same substance, the “change in VE-cadherin (Western blot)” value in data set [3] is reported as “VE-cadherin was not decreased”. Further, the “permeability of HUVEC” value in data set [1] was “improvement of vascular permeability was not induced”.
Take “Fc-4F22: Human IgG1 Fc with TPP 4F22 (SEQ ID NO: 8) fused to its C-terminus (GAGAREAPGAPRSPEPQDQKKPRNRR)”: in data set [4], the Association rate ka is listed as 2.18 ± 0.12 × 10^2 M^−1s^−1, the Dissociation rate kd is recorded as 2.25 ± 0.18 × 10^−3 s^−1 and the dissociation constant Kd stood at 10.3 µM. In data set [5], the Association rate ka is 1.21 ± 0.15 × 10^2 M^−1s^−1, the Dissociation rate kd is 1.57 ± 0.40 × 10^−3 s^−1 and the Kd came out at 13 µM. Also, the “permeability of HUVEC” value in data set [1] is “permeability of HUVEC was not improved”.
“F22p: F22 with Asn777Pro, SEQ ID NO: 4, REAPGAPRSPEPQDQKKPRPRR (F22p) [Clone F22p]”: in data set [1], the “permeability of HUVEC” value was “permeability of HUVEC was not improved”. Also, the “binding to b1b2 domains of NRP-1 and -2 (ELISA, absorbance 405 nm)” value in data set [6] was “stronger bond”.
“Fc-15F22: Human IgG1 Fc with (GGGGS)3-F22 (SEQ ID NO: 9) fused to its C-terminus (GGGGSGGGGSGGGGSREAPGAPRSPEPQDQKKPRNRR)”: in data set [4], the Association rate ka is given as 1.35 ± 0.24 × 10^3 M^−1s^−1, the Dissociation rate kd is 5.34 ± 0.24 × 10^−2 s^−1 and the Kd was 39.7 µM. Further, in data set [5], the Association rate ka was 1.05 ± 0.03 × 10^3 M^−1s^−1, the Dissociation rate kd is 1.30 ± 0.21 × 10^−2 s^−1 and the Kd came out at 12.4 µM. Besides, the “permeability of HUVEC” value in data set [1] was “permeability of HUVEC was not improved”.
By koff is commonly meant a measure of how fast the partners let go of each other. A higher koff goes with fast dissociation. What is called kon is the second-order rate constant of association. A high value points to faster complex formation. In data set [7], “Sema3F (19-779) (from UniProt Q13275) (ligand)” returned a Kd of 0.345 µM, a koff of 0.0015 s⁻¹ and a kon of 4340 M⁻¹ s⁻¹. For the same substance, in data set [8], the equilibrium dissociation constant (Kd) was found to be 0.245 µM, the koff turned out to be 0.000973 s⁻¹ and the kon worked out at 3980 M⁻¹ s⁻¹.
For “Sema3A (26-760) (from UniProt Q14563) (ligand)”, in data set [7], the Kd turned out to be 0.231 µM, the koff stood at 0.00161 s⁻¹ and the kon was determined as 6960 M⁻¹ s⁻¹. In data set [8], this substance came in with a Kd of 0.0279 µM, a koff of 0.000808 s⁻¹ and a kon of 28900 M⁻¹ s⁻¹.
For the substance “A22p: A22 with Asn758Pro, SEQ ID NO: 2, HTPGNSNKWKHLQENKKGRPRR (A22p) [Clone A22p]”, the “infiltration into tumor tissue (IHC)” value in data set [2] was “did not infiltrate into the tissues”. Further, the “change in VE-cadherin (Western blot)” value in data set [3] was “no change in VE-cadherin”. In addition, in data set [1], the “permeability of HUVEC” value is “improvement of vascular permeability was not induced”. For the same substance, in data set [6], the “binding to b1b2 domains of NRP-1 and -2 (ELISA, absorbance 405 nm)” value is listed as “stronger bond”.
Consider “VEGF165A (from UniProt P15692-4) (ligand)”, for which, in data set [7], the Kd turned out to be 0.032 µM, the koff came to 0.00373 s⁻¹ and the kon was determined as 117000 M⁻¹ s⁻¹. In data set [8], this substance returned a Kd of 0.00351 µM, a koff of 0.00342 s⁻¹ and an on-rate (kon) of 975000 M⁻¹ s⁻¹.
